{"source": "patent US20140087995A1", "about": "(published 2014)", "binders": {"B1": {"name": "N^ε1-[2-[2-[2-[[(4S)-4-carboxy-4-(19-carboxynonadecanoylamino)butanoyl]amino]ethoxy]ethoxy]acetyl]-[His14,Arg17,Pro21,Pro27,Pro34]-h-amylin (peptide)", "peptide": "K([AEEA-γGlu-C20 diacid])CNTATCATQRLAHFLRHSSPNFGAIPSSTNVGPNTY-NH2", "modifications": "disulfide 2-7; N-terminus assumed", "SMILES": "CC[C@H](C)[C@H](NC(=O)[C@H](C)NC(=O)CNC(=O)[C@H](Cc1ccccc1)NC(=O)[C@H](CC(N)=O)NC(=O)[C@@H]1CCCN1C(=O)[C@H](CO)NC(=O)[C@H](CO)NC(=O)[C@H](Cc1c[nH]cn1)NC(=O)[C@H](CCCNC(=N)N)NC(=O)[C@H](CC(C)C)NC(=O)[C@H](Cc1ccccc1)NC(=O)[C@H](Cc1c[nH]cn1)NC(=O)[C@H](C)NC(=O)[C@H](CC(C)C)NC(=O)[C@H](CCCNC(=N)N)NC(=O)[C@H](CCC(N)=O)NC(=O)[C@@H](NC(=O)[C@H](C)NC(=O)[C@@H]1CSSC[C@H](NC(=O)[C@@H](N)CCCCNC(=O)COCCOCCNC(=O)CC[C@H](NC(=O)CCCCCCCCCCCCCCCCCCC(=O)O)C(=O)O)C(=O)N[C@@H](CC(N)=O)C(=O)N[C@@H]([C@@H](C)O)C(=O)N[C@@H](C)C(=O)N[C@@H]([C@@H](C)O)C(=O)N1)[C@@H](C)O)C(=O)N1CCC[C@H]1C(=O)N[C@@H](CO)C(=O)N[C@@H](CO)C(=O)N[C@H](C(=O)N[C@@H](CC(N)=O)C(=O)N[C@H](C(=O)NCC(=O)N1CCC[C@H]1C(=O)N[C@@H](CC(N)=O)C(=O)N[C@H](C(=O)N[C@@H](Cc1ccc(O)cc1)C(N)=O)[C@@H](C)O)C(C)C)[C@@H](C)O", "notes": "also called compound 68"}, "B2": {"name": "N^ε1-[2-[2-[2-[[(4S)-4-carboxy-4-(19-carboxynonadecanoylamino)butanoyl]amino]ethoxy]ethoxy]acetyl]-[His14,Arg17,Pro21,Pro27]-h-amylin (peptide)", "peptide": "K([AEEA-γGlu-C20 diacid])CNTATCATQRLAHFLRHSSPNFGAIPSSTNVGSNTY-NH2", "modifications": "disulfide 2-7; N-terminus assumed", "SMILES": "CC[C@H](C)[C@H](NC(=O)[C@H](C)NC(=O)CNC(=O)[C@H](Cc1ccccc1)NC(=O)[C@H](CC(N)=O)NC(=O)[C@@H]1CCCN1C(=O)[C@H](CO)NC(=O)[C@H](CO)NC(=O)[C@H](Cc1c[nH]cn1)NC(=O)[C@H](CCCNC(=N)N)NC(=O)[C@H](CC(C)C)NC(=O)[C@H](Cc1ccccc1)NC(=O)[C@H](Cc1c[nH]cn1)NC(=O)[C@H](C)NC(=O)[C@H](CC(C)C)NC(=O)[C@H](CCCNC(=N)N)NC(=O)[C@H](CCC(N)=O)NC(=O)[C@@H](NC(=O)[C@H](C)NC(=O)[C@@H]1CSSC[C@H](NC(=O)[C@@H](N)CCCCNC(=O)COCCOCCNC(=O)CC[C@H](NC(=O)CCCCCCCCCCCCCCCCCCC(=O)O)C(=O)O)C(=O)N[C@@H](CC(N)=O)C(=O)N[C@@H]([C@@H](C)O)C(=O)N[C@@H](C)C(=O)N[C@@H]([C@@H](C)O)C(=O)N1)[C@@H](C)O)C(=O)N1CCC[C@H]1C(=O)N[C@@H](CO)C(=O)N[C@@H](CO)C(=O)N[C@H](C(=O)N[C@@H](CC(N)=O)C(=O)N[C@H](C(=O)NCC(=O)N[C@@H](CO)C(=O)N[C@@H](CC(N)=O)C(=O)N[C@H](C(=O)N[C@@H](Cc1ccc(O)cc1)C(N)=O)[C@@H](C)O)C(C)C)[C@@H](C)O", "notes": "also called compound 69"}, "B3": {"name": "N^ε1-[2-[2-[2-[[(4S)-4-carboxy-4-(19-carboxynonadecanoylamino)butanoyl]amino]ethoxy]ethoxy]acetyl]-[Lys14,Arg17,Pro21,Pro27,Pro31]-h-amylin (peptide)", "peptide": "K([AEEA-γGlu-C20 diacid])CNTATCATQRLAKFLRHSSPNFGAIPSSTPVGSNTY-NH2", "modifications": "disulfide 2-7; N-terminus assumed", "SMILES": "CC[C@H](C)[C@H](NC(=O)[C@H](C)NC(=O)CNC(=O)[C@H](Cc1ccccc1)NC(=O)[C@H](CC(N)=O)NC(=O)[C@@H]1CCCN1C(=O)[C@H](CO)NC(=O)[C@H](CO)NC(=O)[C@H](Cc1c[nH]cn1)NC(=O)[C@H](CCCNC(=N)N)NC(=O)[C@H](CC(C)C)NC(=O)[C@H](Cc1ccccc1)NC(=O)[C@H](CCCCN)NC(=O)[C@H](C)NC(=O)[C@H](CC(C)C)NC(=O)[C@H](CCCNC(=N)N)NC(=O)[C@H](CCC(N)=O)NC(=O)[C@@H](NC(=O)[C@H](C)NC(=O)[C@@H]1CSSC[C@H](NC(=O)[C@@H](N)CCCCNC(=O)COCCOCCNC(=O)CC[C@H](NC(=O)CCCCCCCCCCCCCCCCCCC(=O)O)C(=O)O)C(=O)N[C@@H](CC(N)=O)C(=O)N[C@@H]([C@@H](C)O)C(=O)N[C@@H](C)C(=O)N[C@@H]([C@@H](C)O)C(=O)N1)[C@@H](C)O)C(=O)N1CCC[C@H]1C(=O)N[C@@H](CO)C(=O)N[C@@H](CO)C(=O)N[C@H](C(=O)N1CCC[C@H]1C(=O)N[C@H](C(=O)NCC(=O)N[C@@H](CO)C(=O)N[C@@H](CC(N)=O)C(=O)N[C@H](C(=O)N[C@@H](Cc1ccc(O)cc1)C(N)=O)[C@@H](C)O)C(C)C)[C@@H](C)O", "notes": "also called compound 74"}, "B4": {"name": "N^ε1-[2-[2-[2-[[(4S)-4-carboxy-4-(19-carboxynonadecanoylamino)butanoyl]amino]ethoxy]ethoxy]acetyl]-[Ser14,Arg17,Pro21,Pro27,Pro31]-h-amylin (peptide)", "peptide": "K([AEEA-γGlu-C20 diacid])CNTATCATQRLASFLRHSSPNFGAIPSSTPVGSNTY-NH2", "modifications": "disulfide 2-7; N-terminus assumed", "SMILES": "CC[C@H](C)[C@H](NC(=O)[C@H](C)NC(=O)CNC(=O)[C@H](Cc1ccccc1)NC(=O)[C@H](CC(N)=O)NC(=O)[C@@H]1CCCN1C(=O)[C@H](CO)NC(=O)[C@H](CO)NC(=O)[C@H](Cc1c[nH]cn1)NC(=O)[C@H](CCCNC(=N)N)NC(=O)[C@H](CC(C)C)NC(=O)[C@H](Cc1ccccc1)NC(=O)[C@H](CO)NC(=O)[C@H](C)NC(=O)[C@H](CC(C)C)NC(=O)[C@H](CCCNC(=N)N)NC(=O)[C@H](CCC(N)=O)NC(=O)[C@@H](NC(=O)[C@H](C)NC(=O)[C@@H]1CSSC[C@H](NC(=O)[C@@H](N)CCCCNC(=O)COCCOCCNC(=O)CC[C@H](NC(=O)CCCCCCCCCCCCCCCCCCC(=O)O)C(=O)O)C(=O)N[C@@H](CC(N)=O)C(=O)N[C@@H]([C@@H](C)O)C(=O)N[C@@H](C)C(=O)N[C@@H]([C@@H](C)O)C(=O)N1)[C@@H](C)O)C(=O)N1CCC[C@H]1C(=O)N[C@@H](CO)C(=O)N[C@@H](CO)C(=O)N[C@H](C(=O)N1CCC[C@H]1C(=O)N[C@H](C(=O)NCC(=O)N[C@@H](CO)C(=O)N[C@@H](CC(N)=O)C(=O)N[C@H](C(=O)N[C@@H](Cc1ccc(O)cc1)C(N)=O)[C@@H](C)O)C(C)C)[C@@H](C)O", "notes": "also called compound 73"}, "B5": {"name": "N^ε1-[(4S)-4-carboxy-4-(19-carboxynonadecanoylamino)butanoyl]-[Arg14,Arg17,Pro21,Pro27,Pro31]-h-amylin (peptide)", "peptide": "K([γGlu-C20 diacid])CNTATCATQRLARFLRHSSPNFGAIPSSTPVGSNTY-NH2", "modifications": "disulfide 2-7; N-terminus assumed", "SMILES": "CC[C@H](C)[C@H](NC(=O)[C@H](C)NC(=O)CNC(=O)[C@H](Cc1ccccc1)NC(=O)[C@H](CC(N)=O)NC(=O)[C@@H]1CCCN1C(=O)[C@H](CO)NC(=O)[C@H](CO)NC(=O)[C@H](Cc1c[nH]cn1)NC(=O)[C@H](CCCNC(=N)N)NC(=O)[C@H](CC(C)C)NC(=O)[C@H](Cc1ccccc1)NC(=O)[C@H](CCCNC(=N)N)NC(=O)[C@H](C)NC(=O)[C@H](CC(C)C)NC(=O)[C@H](CCCNC(=N)N)NC(=O)[C@H](CCC(N)=O)NC(=O)[C@@H](NC(=O)[C@H](C)NC(=O)[C@@H]1CSSC[C@H](NC(=O)[C@@H](N)CCCCNC(=O)CC[C@H](NC(=O)CCCCCCCCCCCCCCCCCCC(=O)O)C(=O)O)C(=O)N[C@@H](CC(N)=O)C(=O)N[C@@H]([C@@H](C)O)C(=O)N[C@@H](C)C(=O)N[C@@H]([C@@H](C)O)C(=O)N1)[C@@H](C)O)C(=O)N1CCC[C@H]1C(=O)N[C@@H](CO)C(=O)N[C@@H](CO)C(=O)N[C@H](C(=O)N1CCC[C@H]1C(=O)N[C@H](C(=O)NCC(=O)N[C@@H](CO)C(=O)N[C@@H](CC(N)=O)C(=O)N[C@H](C(=O)N[C@@H](Cc1ccc(O)cc1)C(N)=O)[C@@H](C)O)C(C)C)[C@@H](C)O", "notes": "also called compound 63"}, "B6": {"name": "N^ε1-[(4S)-4-carboxy-4-(19-carboxynonadecanoylamino)butanoyl]-[Arg14,Arg17,Pro21,Pro27,Pro34]-h-amylin (peptide)", "peptide": "K([γGlu-C20 diacid])CNTATCATQRLARFLRHSSPNFGAIPSSTNVGPNTY-NH2", "modifications": "disulfide 2-7; N-terminus assumed", "SMILES": "CC[C@H](C)[C@H](NC(=O)[C@H](C)NC(=O)CNC(=O)[C@H](Cc1ccccc1)NC(=O)[C@H](CC(N)=O)NC(=O)[C@@H]1CCCN1C(=O)[C@H](CO)NC(=O)[C@H](CO)NC(=O)[C@H](Cc1c[nH]cn1)NC(=O)[C@H](CCCNC(=N)N)NC(=O)[C@H](CC(C)C)NC(=O)[C@H](Cc1ccccc1)NC(=O)[C@H](CCCNC(=N)N)NC(=O)[C@H](C)NC(=O)[C@H](CC(C)C)NC(=O)[C@H](CCCNC(=N)N)NC(=O)[C@H](CCC(N)=O)NC(=O)[C@@H](NC(=O)[C@H](C)NC(=O)[C@@H]1CSSC[C@H](NC(=O)[C@@H](N)CCCCNC(=O)CC[C@H](NC(=O)CCCCCCCCCCCCCCCCCCC(=O)O)C(=O)O)C(=O)N[C@@H](CC(N)=O)C(=O)N[C@@H]([C@@H](C)O)C(=O)N[C@@H](C)C(=O)N[C@@H]([C@@H](C)O)C(=O)N1)[C@@H](C)O)C(=O)N1CCC[C@H]1C(=O)N[C@@H](CO)C(=O)N[C@@H](CO)C(=O)N[C@H](C(=O)N[C@@H](CC(N)=O)C(=O)N[C@H](C(=O)NCC(=O)N1CCC[C@H]1C(=O)N[C@@H](CC(N)=O)C(=O)N[C@H](C(=O)N[C@@H](Cc1ccc(O)cc1)C(N)=O)[C@@H](C)O)C(C)C)[C@@H](C)O", "notes": "also called compound 65"}}, "note": "Numbered stars: 1 amine (or outer) side, 2 acyl side, 3 side chain; on linkers, the order of the positions; unused ones are H or OH. Bridge positions count the residues as written; N and C are the ends. Side chains are listed from the residue outwards. Ends that are not written are not given here. * marks the point of attachment. C20 diacid = O=C(O)CCCCCCCCCCCCCCCCCCC(=O)*; γGlu = O=C(O)[C@H](CCC(=O)[*:2])N[*:1]; AEEA = NCCOCCOCC(=O)O"}
{"biological_target": "T1, human calcitonin receptor (human, UniProt P30988 25-474)", "T1 construct": "whole, on cells; also called hCTR; hCT", "T1 sequence (looked up)": "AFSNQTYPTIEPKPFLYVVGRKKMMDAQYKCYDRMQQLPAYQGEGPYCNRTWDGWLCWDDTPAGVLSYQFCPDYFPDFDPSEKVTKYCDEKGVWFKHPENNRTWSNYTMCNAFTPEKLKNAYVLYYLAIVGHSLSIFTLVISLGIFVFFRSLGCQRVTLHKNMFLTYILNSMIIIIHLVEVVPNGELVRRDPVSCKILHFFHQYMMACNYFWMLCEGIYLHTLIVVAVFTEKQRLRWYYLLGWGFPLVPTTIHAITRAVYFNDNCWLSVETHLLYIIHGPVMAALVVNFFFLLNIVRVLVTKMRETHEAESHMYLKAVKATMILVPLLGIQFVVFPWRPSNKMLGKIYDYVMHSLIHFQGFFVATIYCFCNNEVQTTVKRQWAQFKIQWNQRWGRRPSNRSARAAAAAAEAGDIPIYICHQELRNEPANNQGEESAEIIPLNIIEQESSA", "assay": "SPA competition with 125I-calcitonin, membranes of BHK hCTR cells (Assay VII)", "method_in_brief": "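BHK hCTR membranes 35 ng/μL + SPA beads 0.05 mg/well; buffer 50 mM Hepes pH 7.4, 1 mM CaCl2, 5 mM MgCl₂, 0.1% OA, 0.02% Tween20. 120 min, 25° C., shaking. Scintillation count; IC50 by one-site binding competition.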", "units": {"IC50": "nM"}}
{"binder": "B1", "IC50": 5.66}
{"binder": "B2", "IC50": 8.68}
{"binder": "B3", "IC50": 79.9}
{"binder": "B4", "IC50": 5.38}
{"binder": "B5", "IC50": 130}
{"binder": "B6", "IC50": 53.5}
